Data published in article PMC10318464, “A CsoR family transcriptional regulator, TTHA1953, controls the sulfur oxidation pathway in Thermus thermophilus HB8” (The Journal of Biological Chemistry, 2023).
Where a chain is given by its changes, count along the chain named.

T1: TTHA1953 (Thermus thermophilus HB8, UniProt Q5SGX7 1-93)
T1 sequence: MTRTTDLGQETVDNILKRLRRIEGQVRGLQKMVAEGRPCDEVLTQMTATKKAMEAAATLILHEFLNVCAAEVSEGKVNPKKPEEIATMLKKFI

B1: ST2_1953_mt9 (dsDNA)
DNA 1: CTAGGAATTCGTGCAGAGGTGAGCTTATACCTTGTGCTGGTACATCCCTCCAGAAGCTTGGAC
DNA 2: GTCCAAGCTTCTGGAGGGATGTACCAGCACAAGGTATAAGCTCACCTCTGCACGAATTCCTAG
B2: ST2_1953_mt10 (dsDNA)
DNA 1: B1 DNA 1 with T28G, A29C, C30T, T35G, G36T, C37A
DNA 2: B1 DNA 2 with G27T, C28A, A29C, G34A, T35G, A36C
B3: Control (dsDNA)
DNA 1: CCTCTCTATGGGCAGTCGGTGATCTAGGAATTCGTGCAGAGGTGACGTCATAGAATTCGCATCCCTCCAGAAGCTTGGAC
DNA 2: GTCCAAGCTTCTGGAGGGATGCGAATTCTATGACGTCACCTCTGCACGAATTCCTAGATCACCGACTGCCCATAGAGAGG
B4: ST2_1953_mt7 (spacer +1) (dsDNA)
DNA 1: CTAGGAATTCGTGCAGAGGTGATACTATACCTCTGGTATGGTACATCCCTCCAGAAGCTTGGAC
DNA 2: GTCCAAGCTTCTGGAGGGATGTACCATACCAGAGGTATAGTATCACCTCTGCACGAATTCCTAG
B5: ST2_1953_mt8 (spacer -1) (dsDNA)
DNA 1: CTAGGAATTCGTGCAGAGGTGATACTATACCTGGTATGGTACATCCCTCCAGAAGCTTGGAC
DNA 2: GTCCAAGCTTCTGGAGGGATGTACCATACCAGGTATAGTATCACCTCTGCACGAATTCCTAG
B6: TTHA1953, CsoR-like protein from Thermus thermophilus HB8 (natural protein, UniProt Q5SGX7 1-93, looked up)
chain: T1 sequence
notes: TTHA1953, CsoR-like protein of Thermus thermophilus HB8; expression vector TEx04A02 bought from RIKEN BioResource Research Center; has two cysteines (C39, C68); No tag is mentioned; Estimated homo-octamer weight 83 kDa, so about 10 kDa a chain; also called CsoR family transcriptional regulator; source: E. coli Rosetta 2 (DE3), purified (1 M NaCl extraction of the pellet after sonication, 70 °C …)

Experiments:
[1] = molecular target: T1, TTHA1953; assay: BLI; 1 mM DTT; BLI: 20 mM Tris pH 7.5, 100 mM NaCl, 1 mM EDTA, 0.05% Tween-20, 1 mM DTT, 37 C; REPSA: 1x CutSmart, 1 mM DTT, 55 C 20 min then 37 C (REPA details not in materia); conditions: protein: recombinant, chain copies: 8, blunt
[2] = molecular target: T1, TTHA1953; assay: as above; conditions: protein: recombinant; chain copies: 8; label: 5' biotin on ST2R strand; blunt
[3] = molecular target: the molecule itself; assay: native gel or EMSA; adaptation of a Ferguson plot; apparent weight of the TTHA1953 complex bound to its consensus-sequence DNA (Fig. S3)
[4] = molecular target: the molecule itself; assay: non-reducing SDS-PAGE; 2 μg recombinant TTHA1953 treated with buffer, 10 mM CuCl2 or H2O2 for 20 min; Laemmli buffer with or without 350 mM β-mercaptoethanol; Coomassie staining
[5] = label: 5' biotin on ST2R strand

Binder | binding result [1, 5] | Kd fold-change relative to consensus [2] | also measured
B1 | no binding |  | 
B2 | no binding |  | 
B3 |  |  | binding result ([1]; label: 5' IRDye800 on ControlL strand (REPA)): no binding
B4 |  | ~10 fold higher Kd than consensus | 
B5 |  | ~15 fold higher Kd than consensus | 
B6 |  |  | stoichiometry N [3]: 8; stoichiometry N [4]: 2
